Measured values from US7807387B2, “Biological agent that causes IL-6 receptor release” (Meyer Pharmaceuticals LLC, priority 2003, dated 2010).

What was measured:
[1] = tested on: carrageenan-induced paw edema; experiment: Carrageenan-induced paw edema; assay type: in vivo, Sprague Dawley rats
Method: Based on the standard model (Winter et al., Proc Soc Exp Biol Med 111:544, 1962; Hansra et al., Inflammation 24:141, 2000), the experiment was performed as follows. Male Sprague Dawley rats were randomized by weight into three treatment groups. The animals were administered MP8 or control solution subcutaneously, or indomethacin by mouth. One hour later, they were injected in the left hind paw with a sterile solution of 1% carrageenan suspension in water, in order to induce swelling. Three hours later, the volume of the injected paw was measured by water displacement in a water plethysmograph (mean±SEM; 10 animals per group).
Male Sprague Dawley rats were administered with test protein or indomethacin (anti-inflammatory control), and then challenged in a hind footpad with carrageenan, as in Example 12.

p55 or p75 TNF receptor = conditions: cited from earlier work
p55 TNF Receptor = p55 TNF Receptor (Homo sapiens, UniProt P19438); experiment: FRET peptide cleavage assay, p55 TNF receptor peptide; assay type: biochemical; conditions: Zn++ 0.1 mM, Ca++ 2 mM, corrected for EDTA, 37° C. for 3 hours
Method: Cytokine-specific proteolytic activity can rapidly be quantified by Fluorescence Resonance Energy Transfer (FRET). Peptides having the amino acid sequence of the TNF Receptor or other protein substrates are labeled at opposite ends with a fluorescence emitter and a fluorescence quencher. The peptide is then incubated with a source of receptor cleaving enzyme, and fluorescence is measured. The quenching group normally absorbs fluorescence from the emitter. But enzymatic cleavage of the peptide decouples the quenching group, and fluorescence emission increases proportionally.
The peptides used as substrates in the cleavage assay were taken from the known sites of proteolytic cleavage of the whole protein. The peptides were labeled with the fluorescence emitter (Edans-●) at the C-terminal, and the quenching hapten (Dabcyl-▴) at the N-terminal.
The assay is conducted in the presence of the metal cations Zn^++ (0.1 mM) and Ca^++ (2 mM), and corrected for cleavage in the presence of EDTA (20 mM). Dependence on divalent cations confirms that the enzyme activity measured in this assay is a metalloprotease. The assay mixture also contains a cocktail of protease inhibitors and bovine albumin. Cleavage is measured as the net change in fluorescence emission after incubating the enzyme with the peptide at 37° C. for 3 hours. […]

TNF receptor = experiment: Cell surface cleavage assay, release of TNF receptor isoforms by enzyme immunoassay; assay type: cell-based; conditions: 25 μg protein with 2.5×10^6 cells; (treated—untreated)/untreated
Method: To determine cell surface cleavage activity, 25 μg of MP8-FL2 was combined with 2.5×10^6 cells. Release of both TNF receptor isoforms was determined by enzyme immunoassay as (treated—untreated)/untreated.

Isoelectric point = assay type: physicochemical
LPS-induced septic shock = experiment: LPS/galactosamine-induced septic shock model; assay type: in vivo, Balb/c mice; conditions: up to 40 μg one hour before 10 μg LPS and 15 mg galactosamine
Method: A classic model for determining effectiveness of agents against cytokine-mediated inflammation is endotoxin-induced septic shock (Morrison et al., J Infect Dis 162:1063, 1990).
The septic shock experiment was conducted as follows. Female Balb/c mice were randomized by weight into 6 treatment groups. Sepsis was induced by injecting 10 μg LPS and 7 mg galactosamine in the lateral or dorsal caudal vein. Some of the groups were pretreated with 50,000 FU of MP8 simultaneously or 3 hours in advance of the LPS challenge to determine whether there was a protective effect.
FIG. 8 is a Kaplan-Meier survival curve, showing the mortality in each of the treatment groups in the study. Without any treatment or challenge, there is no effect on the animals, and the line stays at the top. Life-compromising challenge causes the line to fall to the bottom of the graph in a step-wise fashion as each animal succumbs. Treatment that is protective against the challenge maintains the line near the top of the graph.
The enzyme was administered in a volume of 110 μL at one hour before the LPS challenge.
Stability of the clinical effect of MP8 was determined in the septic shock model. Female Balb/c mice were injected with 300,000 FU of MP8 that had been stored for 4 days at −70° C., or 7 days at 4° C. One hour later, the mice were challenged with 10 μg LPS and 7 mg galactosamine as before.
In this example, durability of receptor cleavage in vivo was determined by treating animals subcutaneously up to three days in advance with 300,000 FU of MP8. The mice were then challenged with […] LPS and 7 mg galactosamine in the usual fashion.
Sepsis was induced in Balb/c mice by administering 10 μg LPS and […] galactosamine, as in Example 3. Randomized groups were pretreated with up to 40 μg MP8-FL2 one hours in advance of the LPS challenge.

In the case of `COc1ccc2c(c1)c(CC(=O)O)c(C)n2C(=O)c1ccc(Cl)cc1` [indomethacin, reference compound], the “inhibition of edema formation” value ([1]; given one hour before carrageenan, paw volume three hours later, MP8 subcutaneously, indomethacin by mouth) is reported as 49%.

B1: ADAM-10: metalloprotease (protein, UniProt O14672 214-748, looked up)
Disintegrin and …: TTSAEKNTCQLYIQTDHLFFKYYGTREAVIAQISSHVKAIDTIYQTTDFSGIRNISFMVKRIRINTTADEKDPTNPFRFPNIGVEKFLELNSEQNHDDYCLAYVFTDRDFDDGVLGLAWVGAPSGSSGGICEKSKLYSDGKKKSLNTGIITVQNYGSHVPPKVSHITFAHEVGHNFGSPHDSGTECTPGESKNLGQKENGNYIMYARATSGDKLNNNKFSLCSIRNISQVLEKKRNNCFVESGQPICGNGMVEQGEECDCGYSDQCKDECCFDANQPEGRKCKLKPGKQCSPSQGPCCTAQCAFKSKSEKCRDDSDCAREGICNGFTALCPASDPKPNFTDCNRHTQVCINGQCAGSICEKYGLEECTCASSDGKDDKELCHVCCMKKMDPSTCASTGSVQWSRHFSGRTITLQPGSPCNDFRGYCDVFMRCRLVDADGPLARLKKAIFSPELYENIAEWIVAHWWAVLLMGIALIMLMAGFIKICSVHTPSSNPKLPPPKPLPGTLKRRRPPQPIQQPQRQRPRESYQMGHMRR
For B1, the “cleavage of p55 or p75 TNF receptor” value (p55 or p75 TNF receptor) is given as “do not efficiently cleave”.

B2: MP8-FL2: full length MP8 (SEQ. ID NO:53) without HIS tag, produced from E. coli strain MP820 (protein, listed as Homo sapiens)
chain: MCVHPGACLPHVGVSWAEFPGHFSVELSSLLVRNVNYEIPSLKKQIAKCQQLQQEYSRKEEECQAGAAEMREQFYHSCKQYGITGENVRGELLALVKDLPSQLAEIGAAAQQSLGEAIDVYQASVGFVCESPTEQVLPMLRFVQKRGNSTVYEWRTGTEPSVVERPHLEELPEQVAEDAIDWGDFGVEAVSEGTDSGISAEAAGIDWGIFPESDSKDPGGDGIDWGDDAVALQITVLEAGTQAPEGVARGPDALTLLEYTETRNQFLDELMELEIFLAQRAVELSEEADVLSVSQFQLAPAILQGQTKEKMVTMVSVLEDLIGKLTSLQLQHLFMILASPRYVDRVTEFLQQKLKQSQLLALKKELMVQKQQEALEEQAALEPKLDLLLEKTKELQKLIEADISKRYSGRPVNLMGTSL
For B2, the “cleavage of p55 TNF receptor (R1) peptide” value (p55 TNF Receptor) was “caused cleavage”, the “cleavage and release of TNF receptor from the cell surface” value (TNF receptor) was “cause cleavage and release of TNF receptor, with preference for the R1 (p55) isoform” and the “Isoelectric Point - By isoelectric focusing” value (Isoelectric point) was 5.6. The paw swelling ([1]; challenge in hind footpad with carrageenan as in Example 12) was “significantly prevented paw swelling” and the “protection against septic shock” value (LPS-induced septic shock) was “protected the mice in a dose-dependent fashion”.

B3: MDC-9: metalloprotease (protein, UniProt Q13443 29-819, looked up)
Disintegrin and …: AARPGFQQTSHLSSYEIITPWRLTRERREAPRPYSKQVSYVIQAEGKEHIIHLERNKDLLPEDFVVYTYNKEGTLITDHPNIQNHCHYRGYVEGVHNSSIALSDCFGLRGLLHLENASYGIEPLQNSSHFEHIIYRMDDVYKEPLKCGVSNKDIEKETAKDEEEEPPSMTQLLRRRRAVLPQTRYVELFIVVDKERYDMMGRNQTAVREEMILLANYLDSMYIMLNIRIVLVGLEIWTNGNLINIVGGAGDVLGNFVQWREKFLITRRRHDSAQLVLKKGFGGTAGMAFVGTVCSRSHAGGINVFGQITVETFASIVAHELGHNLGMNHDDGRDCSCGAKSCIMNSGASGSRNFSSCSAEDFEKLTLNKGGNCLLNIPKPDEAYSAPSCGNKLVDAGEECDCGTPKECELDPCCEGSTCKLKSFAECAYGDCCKDCRFLPGGTLCRGKTSECDVPEYCNGSSQFCQPDVFIQNGYPCQNNKAYCYNGMCQYYDAQCQVIFGSKAKAAPKDCFIEVNSKGDRFGNCGFSGNEYKKCATGNALCGKLQCENVQEIPVFGIVPAIIQTPSRGTKCWGVDFQLGSDVPDPGMVNEGTKCGAGKICRNFQCVDASVLNYDCDVQKKCHGHGVCNSNKNCHCENGWAPPNCETKGYGGSVDSGPTYNEMNTALRDGLLVFFFLIVPLIVCAIFIFIKRDQLWRSYFRKKRSQTYESDGKNQANPSRQPGSVPRHVSPVTPPREVPIYANRFAVPTYAAKQPQQFPSRPPPPQPKVSSQGNLIPARPAPAPPLYSSLT
For B3, the “cleavage of p55 or p75 TNF receptor” value (p55 or p75 TNF receptor) is listed as “do not efficiently cleave”.
